# Source: PMC6771824, “Topology and enzymatic properties of a canonical Polycomb repressive complex 1 isoform” (Febs Letters, 2019)
# T1: RING1B-PCGF2 heterodimer (human, UniProt Q99496 1-336; P35227 1-344)
# T1 construct: RING1B, human, full length; the same chain as m1; PCGF2 (aka Mel18), human, full length; the same chain as m2; Pre-formed complex titrated as one molecule against UbcH5c; also called RING1B-PCGF2 subcomplex; source: Sf21 insect cells (MultiBac co-expression), purified (strep-tactin resin, two S200 SEC steps)
# T1 sequence (looked up) 1: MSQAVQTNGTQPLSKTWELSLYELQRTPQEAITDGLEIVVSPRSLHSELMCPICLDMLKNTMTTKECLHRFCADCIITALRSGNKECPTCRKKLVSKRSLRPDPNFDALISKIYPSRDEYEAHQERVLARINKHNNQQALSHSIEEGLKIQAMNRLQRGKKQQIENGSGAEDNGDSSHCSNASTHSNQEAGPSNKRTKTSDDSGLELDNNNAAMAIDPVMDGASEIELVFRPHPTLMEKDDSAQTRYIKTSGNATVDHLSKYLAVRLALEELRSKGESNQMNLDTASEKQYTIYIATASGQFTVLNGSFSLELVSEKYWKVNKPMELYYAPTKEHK
# T1 sequence (looked up) 2: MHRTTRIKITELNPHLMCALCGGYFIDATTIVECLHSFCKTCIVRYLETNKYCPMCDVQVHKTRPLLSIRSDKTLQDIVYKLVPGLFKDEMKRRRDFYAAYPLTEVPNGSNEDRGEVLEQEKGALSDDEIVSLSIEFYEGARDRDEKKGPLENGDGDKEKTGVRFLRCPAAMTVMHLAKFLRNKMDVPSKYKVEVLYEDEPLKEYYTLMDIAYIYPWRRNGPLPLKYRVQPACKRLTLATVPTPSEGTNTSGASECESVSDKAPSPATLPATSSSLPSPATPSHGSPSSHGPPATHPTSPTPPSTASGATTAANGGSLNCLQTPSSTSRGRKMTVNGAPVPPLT
# T2: RING1B (human, UniProt Q99496 1-336)
# T2 construct: RING1B, human, catalytic E3 ligase subunit of PRC1; called full length in the discussion; primers run from the second codon to the stop codon; no cleavage of the tag is described; also called strep-tagged RING1B; catalytic subunit RING1B; source: Sf21 insect cells (MultiBac baculovirus), alone or co-expressed with other PRC1 subunits; in lysate and purified (strep-tactin resin, two S200 SEC …)
# T2 sequence (looked up): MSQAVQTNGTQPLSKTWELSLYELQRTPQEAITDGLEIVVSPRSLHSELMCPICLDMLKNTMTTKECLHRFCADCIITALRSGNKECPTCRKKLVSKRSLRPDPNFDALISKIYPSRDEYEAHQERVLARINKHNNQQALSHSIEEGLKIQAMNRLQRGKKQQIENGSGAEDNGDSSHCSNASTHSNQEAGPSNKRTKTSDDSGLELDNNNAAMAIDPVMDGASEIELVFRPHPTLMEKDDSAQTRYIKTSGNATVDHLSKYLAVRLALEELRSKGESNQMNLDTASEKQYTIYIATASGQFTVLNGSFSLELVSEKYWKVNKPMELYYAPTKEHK
# Key:
# RING1B-PCGF2 heterodimer = molecular target: T1, RING1B-PCGF2 heterodimer; test: MST; UbcH5c labelled with NT-547 at 100 nM; RING1B (from 80 uM at 2x) or RING1B-PCGF2 (from 38 uM at 2x) in 16 serial dilutions; HEPES 50 mM pH 8, NaCl 75 mM, DTT 1 mM, Tween 0.05%; Monolith NT.115, LED 20%, MST power 40%; details: both partners purified
# RING1B = molecular target: T2, RING1B; test: as above; details: both partners purified
# UbcH5c, sequence (P61077 whole entry): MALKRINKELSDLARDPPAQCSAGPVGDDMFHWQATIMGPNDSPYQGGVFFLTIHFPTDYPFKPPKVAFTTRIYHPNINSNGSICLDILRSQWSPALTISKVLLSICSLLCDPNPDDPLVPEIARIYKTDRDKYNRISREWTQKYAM
binder,measurement,setting,value
"UbcH5c (enzyme, NT-547 fluorescent dye on Cys85, UbcH5c, ubiquitin-conjugating E2 enzyme; also called UbcH5c E2 enzyme; E2 enzyme; source: E. coli Rosetta (DE3), purified (GST resin, 3C cleavage, Ni-NTA flow-through, S200 SEC)) not shown",Kd,RING1B-PCGF2 heterodimer,4100 ± 1000 nM
same,Kd,RING1B,230 ± 80 nM
